In data set [1] the test system is Receptor II kinase. Nature of the data set: Receptor II assay: ligand enhancement of receptor II kinase activity. The class given is biochemical. The conditions noted are these: saturating (high) ligand concentrations, 25 μM substrate, fixed amount of receptor II. As to the method: (§1) Before adding kinase substrate, incubate the mixture for 5 min to activate receptor II kinase by binding to insulin β. The incubation was done at room temperature for 30 min. Either 10 μL of 200 mM EDTA is added or the sample is frozen to stop the reaction before analysis. For the frozen sample, analysis was performed immediately after thawing the samples.
Analysis was done on a modified Henry chip with 5 mm effective separation length. The injection was performed by applying 400 V at well #2 for 45 s while grounding other wells. The separation conditions are: 0 V for Well #1, 400 V for well #2 and 4, 700 V for well #3.
As another example, receptor II (an insulin-related receptor) was studied in connection with insulin-like growth factor (IGF). A significant enhancement (>4 fold) in receptor II kinase activity was observed. Other ligands tested include insulin, insulin α and β chain. Both insulin and insulin β chain stimulated this receptor kinase activity by as much as 20 fold when a high concentration was used (Table 2). […] For this experiment, 25 μM substrate was used with a fixed amount of receptor II and various amounts of ligands to ensure a saturated binding between receptor and ligand.

Data set [2] has as its system Receptor II kinase. Nature of the data set: Screening assay for competitive inhibitors: competition between insulin β chain and EGF, monitored by receptor II kinase activity. The class given is biochemical. As to the method:
as §1, with “samples. Analysis was done on a modified Henry chip with 5 mm effective separation length. The injection was performed by applying 400 V at well #2 for 45 s while grounding other wells. The separation conditions are: 0 V for Well #1, 400 V for well #2 and 4, 700 V for well #3.” for “samples.”

In the case of insulin, in the data set on Receptor II kinase [1], the “Receptor II Kinase Activity Enhancement (fold)” value is on record as greater than 20 fold.

Regarding Insulin β chain, in the data set with Receptor II kinase [1], the “Receptor II Kinase Activity Enhancement (fold)” value was greater than 20 fold.

Epidermal growth factor [EGF]: the “extent of competition with activating ligand” value with Receptor II kinase [2] (higher insulin β concentration (15 μM), FIG. 14A) was “did not show complete competition”; in the data set on Receptor II kinase [2] (lower insulin β chain concentration of 3 μM, FIG. 14B) it was “near complete competition”. In addition, the IC50 on Receptor II kinase [2] (read-out: IC50 of EGF competing with insulin β chain activation of receptor II kinase, insulin β chain at 3 μM and 15 μM, fixed receptor concentration) lay in the range of 200 to 300 nM.

Take Insulin α chain: the “Receptor II Kinase Activity Enhancement (fold)” value in the data set on Receptor II kinase [1] is listed as “˜3 fold”; in the data set with Receptor II kinase [1] (listed as Insulin α chain), “about 3 fold”.

Broadly, the IC50 is the concentration needed to halve the response being measured.

(Values after US6846645B2, “Multiplexed enzymatic assays” (Aclara Biosciences, Inc., priority 2000, dated 2005).)
